Legend:
[1] = target: T1, S6K11-364K144N (Rattus norvegicus, UniProt P67999, K167N); assay: S6K1 in vitro reconstitution kinase assay with tail peptides; type: biochemical; details: peptide 90 μM
T1 construct: Purified HA-S6K1-364 was incubated with synthetic S6K1 (rat) tail peptides; made in house; host or cells: COS7; anti-HA immunoprecipitate
Experimental: FIG. 13. The tail phosphate synergistically enhances the ability of the HM phosphate to activate S6K, dependent on the tail phosphate-binding site. (A) The kinase activity of purified kinase domain of S6K1 (S6K11-364), pre-phosphorylated by PDK1 in the activation loop, was determined in the presence of increasing concentrations of synthetic S6K1 tail peptide (residues 366-395) that was either non-phosphorylated (S371/T389), phosphorylated at Ser371 (pS371/T389) or Thr389 (5371/pT389) or phosphorylated at both sites (pS371/pT389). (B) The kinase activity of S6K11-364 and S6K11-364K144N, either pre-phosphorylated or not by PDK1, was determined in the absence or presence of 90 μM S371/pT389 or pS371/pT389. (C) pS371/pT389 S6K1 tail peptide was biotinylated and used to coat streptavidin Sensor Chips. The chips were thereafter analyzed for binding to purified GST-S6K11-365 or GST-56K11-365K144N. (A-C) Experiments were repeated at least 3 times and activity data (expressed as percent) are means±SD.
We established an in vitro reconstitution assay that could test a direct activation of the AGC kinase domain by the tail phosphate and characterize its cooperation with the HM and activation loop phosphates. […] Subsequently, the kinase activity of S6K11-364 was determined. […]

[2] = target: T2, PDK150-360 (Homo sapiens, UniProt O15530); assay: Surface plasmon resonance, PDK1 binding to S6K tail peptides
T2 construct: the catalytic domain of PDK1 comprising residues 50-360
T2 sequence (O15530 50-360): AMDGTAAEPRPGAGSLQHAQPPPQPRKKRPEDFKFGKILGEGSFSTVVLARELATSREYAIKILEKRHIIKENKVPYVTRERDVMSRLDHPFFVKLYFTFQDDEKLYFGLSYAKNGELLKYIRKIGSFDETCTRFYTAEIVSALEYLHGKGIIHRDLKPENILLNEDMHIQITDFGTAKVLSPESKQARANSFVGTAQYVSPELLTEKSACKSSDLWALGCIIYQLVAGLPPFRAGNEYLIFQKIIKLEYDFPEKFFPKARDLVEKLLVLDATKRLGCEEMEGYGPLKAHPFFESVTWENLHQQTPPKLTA
Experimental: FIG. 21 (A) Aliquots of S6K1 protein from bar 1, 2, 5 and 6 in FIG. 5B were subjected to immunoblotting with phosphorylation site specific Ab against the activation loop or anti-HA Ab. (B) The kinase activity of PKB<143-479, prephosphorylated by PDK1 in the activation loop, was determined in the presence of increasing concentrations of synthetic PRK2 tail peptides encompassing the HM, which were either nonphosphorylated (PIFtide) or phosphorylated at the tail site (pT958-PIFtide). […] (C) The kinase activity of purified PDK1 was determined in the presence of increasing concentrations of synthetic S6K tail peptide (residues 366-395) that was either phosphorylated at T389 (S371/pT389) or phosphorylated at both 5389 and 5371 (pS371/pT389). Kinase activity is expressed as percent, and data are means+/−SD of 3 independent experiments. (D) Synthetic S371/pT389 S6K tail peptide and pS371/pT389 S6K tail peptide were biotinylated and used to coat streptavidin Sensor Chips. PDK150-360 was injected at different concentrations (0.05-5.4 mM) onto the peptide coated chips. In the inserts, the kinetic constants were obtained by fitting the data to a hyperbola using kaleidagraph software. Representative results from one of several experiments are shown.
BiaCore analysis was performed as described in Biondi et al. (2000). […]

T1 sequence (P67999 24-387 K167N): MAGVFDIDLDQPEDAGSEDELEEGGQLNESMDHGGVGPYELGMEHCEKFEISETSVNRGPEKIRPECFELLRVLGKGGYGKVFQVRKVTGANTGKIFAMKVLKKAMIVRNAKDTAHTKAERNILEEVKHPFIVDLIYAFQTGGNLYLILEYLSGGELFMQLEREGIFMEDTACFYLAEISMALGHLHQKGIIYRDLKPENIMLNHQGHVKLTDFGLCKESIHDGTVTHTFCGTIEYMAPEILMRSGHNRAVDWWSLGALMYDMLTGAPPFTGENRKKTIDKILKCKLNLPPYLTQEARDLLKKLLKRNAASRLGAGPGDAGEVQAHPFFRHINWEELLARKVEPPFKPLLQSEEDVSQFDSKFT

S371/pT389: synthetic S6K1 tail peptide (residues 366-395) phosphorylated in the HM
activation of S6K11-364K144N (in words) [1]: activated normally
binding of PDK1 to tail peptide (in words) [2]: bound equally well
